Measured values published in PMC10444022, “SARS-CoV-2 hijacks neutralizing dimeric IgA for nasal infection and injury in Syrian hamsters^1” (Emerging Microbes & Infections, 2023).

B1: B8-dIgA1 (antibody, V domains shown)
VH: EVQLVQSGAEVKKPGSSVKVSCKASGGTFSNYGISWVRQAPGQGLEWMGRILPTFGTANSAQKFQGRVTITADESTGTAYMELRSLRSEDTAVYYCAKEGLAFLGYGMDVWGQGTTVTVSS
VL: EIVLTQSPGTLSLSPGERATLSCRASQSVSSYLAWYQQKPGQAPRLLIYDASNRATGIPARFIGSGSGTDFTLTISSLEPEDFAVYFCQQRSNWPLTFGGGTKVEIK
B2: B8-mIgA2 (antibody, V domains shown)
VH: B1 VH
VL: B1 VL
B3: B8-dIgA2 (antibody, V domains shown)
VH: B1 VH
VL: B1 VL
B4: B8-mIgA1 (antibody, V domains shown)
VH: B1 VH
VL: B1 VL

Biological target: recombinant SARS-CoV-2 RBD (Sino Biological) (SARS-CoV-2, UniProt P0DTC2)
Test: cell-based or functional assay

Row | Binder | IC50, neutralisation of SARS-CoV-2 pseudovirus in HEK293T-ACE2 cells | IC90, neutralisation of SARS-CoV-2 pseudovirus in HEK293T-ACE2 cells
1 | B1 | 0.0048 µg/mL | 0.033 µg/mL
2 | B2 | 0.0057 µg/mL | 0.014 µg/mL
3 | B3 | 0.012 µg/mL | 0.021 µg/mL
4 | B4 | 0.012 µg/mL | 0.052 µg/mL
